According to patent publication US20250361297A1, “ANTI- SIGLEC-15 BINDING MOLECULES AND METHODS OF USE” (ADAPTAM THERAPEUTICS, S.L., priority 2024, published 2025):
Entries after “also recorded” stand apart in the source; their conditions may differ.

Legend:
[1] = molecular target: T1, human Siglec-15 (Homo sapiens, UniProt Q6ZMC9); experiment: Blocking of human Siglec-15 binding to Jurkat cells (flow cytometry); settings: flow cytometry (FIG. 22)
T1 construct: expressed in transfected cells
T1 sequence (Q6ZMC9 20-328): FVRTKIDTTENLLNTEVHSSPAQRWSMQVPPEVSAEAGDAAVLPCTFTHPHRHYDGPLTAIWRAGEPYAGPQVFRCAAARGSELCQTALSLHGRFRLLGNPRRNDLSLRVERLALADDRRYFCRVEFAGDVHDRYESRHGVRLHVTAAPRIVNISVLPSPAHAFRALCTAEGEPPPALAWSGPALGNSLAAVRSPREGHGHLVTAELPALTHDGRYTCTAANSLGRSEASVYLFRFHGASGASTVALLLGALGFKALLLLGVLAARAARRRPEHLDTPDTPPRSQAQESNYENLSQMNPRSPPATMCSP
Experimental: Blocking assay (Flow cytometry): Briefly, the anti-Siglec-15 antibodies of the disclosure or controls were diluted with human Siglec-15-human Fc protein (Sinobiologicals, 13976-H02H1), at 66.67 nM, and incubated at room temperature for 40 minutes. Then, Jurkat T cells were harvested from cell culture flasks, washed twice, and re-suspended in PBS containing 2% v/v Bovine serum albumin (FACS buffer). Then, 0.5×10^5 cells per well in 96 well-plates were incubated in 100 μL of the antibody/Siglec-15-human Fc mixtures for 40 minutes at 4° C. The plates were washed twice with FACS buffer, and then added and incubated for 40 minutes at 4° C. in dark with 100 μl/well Goat Anti-human IgG (H+L) (1:200 dilution in FACS buffer, Thermofisher). Cells were washed twice and re-suspended in FACS buffer. Fluorescence was measured in a flow cytometer. Data was analyzed using Flowjo and Graphpad Prism software.

[2] = tested on: Siglec-15 positive cells; experiment: Internalization assay (Zenon pHrodo iFL Green); format: cell-based
Experimental: Internalization assay (Zhenon pHrodo): Sufficient volumes of 4× working solution of anti-Siglec-15 antibodies (10 nM) were prepared in cell culture medium for a total of 25 μL for each well of a 96-well plate. A working solution of Zenon™ pHrodo™ iFL IgG Labeling Reagent was prepared at 30 nM and 25 μL were added to each well. The mix was incubated for 5 minutes at room temperature to allow the labeling complexes to form. 5 mL of suspension cells at 2×10^6 cells/mL in cell culture medium were prepared and 50 μL of cells were added to each well of the 96-well plate containing the mix of anti-Siglec-15 antibody and the Zenon™ labeling reagent. Cells were incubated with the labeling complex for different timepoints (1-24 hours) under standard cell culture conditions. Fluorescence was analyzed by flow cytometry.

[3] = tested on: osteoclast differentiation; experiment: Osteoclast differentiation in vitro (TRACP 5b in culture medium); format: cell-based; settings: relative to baseline levels; culture medium at day 7 (FIG. 46)
[4] = molecular target: T2, Siglec-15 on human macrophages (Homo sapiens, UniProt Q6ZMC9); experiment: Flow cytometry binding to Siglec-15 positive human macrophages; settings: compared to clone 5G12 (FIG. 3)
T2 construct: endogenous in cells; host or cells: human monocyte-derived macrophages from donor PBMCs
T2 sequence (Q6ZMC9 20-328): T1 sequence (Q6ZMC9 20-328)
Experimental: Post-polarization, the macrophages were harvested, washed using Flow Cytometry Staining Buffer (00-4222-26, Thermo Fisher Scientific), and subsequently incubated with fluorochrome-conjugated antibodies against Siglec-15, PD-L1, CD206, and CD163. This step was performed for 30 minutes at 4° C. in a dark environment to prevent photobleaching of the fluorochromes and to maintain the integrity of the antibodies.
Following incubation, the cells underwent a second washing step and then resuspended in 200 μL of Flow Cytometry Staining Buffer containing DAPI (1:10,000) (D1306, Invitrogen). DAPI is a nuclear stain that facilitates the identification of viable cells and enables the exclusion of dead cells or debris during analysis. The stained cells were analyzed using a FACSymphony flow cytometer (BD Biosciences). The flow cytometry data were then processed and analyzed using FlowJo software (BD Biosciences).

[5] = tested on: truncated second domain (D2) of Siglec-15; experiment: Flow cytometry binding to HEK 293T cells expressing only the truncated second domain (D2) of Siglec-15; design: species or system human; settings: HEK 293T cells expressing only truncated D2; flow cytometry (FIG. 2B, FIG. 17)
Description: Flow cytometry was used to interrogate the binding of anti-Siglec-15 monoclonal antibodies to cells expressing only a truncated version of Siglec-15 comprising solely of the second domain (D2). This strategy was useful to identify clones that recognize epitopes outside of the canonical sialic acid binding site located in the first domain (D1).
For the ELISA, antigens were immobilized on high-binding plates, and the full-length IgG1 anti-Siglec-15 antibodies were titrated beginning at a concentration of 10 μg/ml. After washing, an anti-human IgG Fab-specific HRP-conjugated secondary antibody was applied for detection. Palivizumab was included as the negative control. Optical densities were measured to generate binding curves from which EC50 values were derived. […] Flow cytometric analysis was conducted, and fluorescence intensity was used to calculate EC50 values, providing a quantitative assessment of the antibodies' cell surface binding efficacy. […] Antibodies were titrated starting at a concentration of 10 μg/ml and detected with an anti-human Fc-specific secondary antibody to detect bound primary antibodies. The half-maximal effective concentration (EC50) was calculated for each antibody to determine its binding affinity to mouse Siglec-15. Results were analyzed and ranked based on the EC50 values. […]

B1: S15B1: parental mouse anti-Siglec-15 monoclonal antibody from hybridoma; VH SEQ ID NO: 18, VL SEQ ID NO: 19 (antibody, V domains shown)
VH: QVQLQQSGPELVKPGASVKISCKASGYAFSSSWMNWVKQRPGKGLEWIGRIYPGHGETNYNGKFKDKATVTADKSSSTTYMQLSSLTSEDSAVYFCARVDNSDPYYFDYWGQGTTLTVSS
VL: DIVLTQSPASLAVSLGQRATISCRASKSVSTSGYSYMHWYQQKPGQPPKLLIYLASNLESGVPARFSGSGSGTDFTLNIHPVEEEDAATYYCQHGRELPFTFGSGTKLEIK
modifications: Clone S15B1 VH; Clone S15B1 VL
With B1 the “blocking of binding of human Siglec-15 to Jurkat cells” value [1] was “approximately 60%”, the “percentage of cells that internalized the antibody” value ([2]; Zenon pHrodo iFL Green label, 24 hours at 37° C.) was 100% and the “internalization, fold increase over isotype control” value ([2]; kinetics over 1, 2, 4, 16, and 24 hours) was “approximately 6 fold”. The “effect on osteoclast differentiation (TRACP 5b)” value [3] was “did not significantly affect”, the “binding to Siglec-15 on human macrophages” value [4] was “superior binding” and the “binding to D2 of Siglec-15” value [5] was “displayed binding affinity for D2; also recorded: significant binding to D2”.
